According to the supplement of paper PMC10567573:

B1: ZNF263 (parent)
chain: LLRHQRIHTGERPYKCPECGKSFS

Variants of: B1
Assay: protein stability index of a GFP-peptide fusion (GPS, HEK-293T) (PSI 1-6); higher = more stable
Settings: c terminus: a fixed tail appended
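Note: lentivirally expressed fusions sorted by FACS into six bins by GFP to DsRed ratio, PSI derived from sequencing read proportions per bin multiplied by bin number.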

Protein stability index: each site, then its substitutions
R3: T 3.27 | G 2.68 | N 2.28 | F 1.58 | I 2.25 | L 1.63 | D 3.77 | M 2.04 | A 3.21 | V 2.3 | H 2.56 | Q 2.34 | E 2.9 | C 2.98 | Y 1.62 | W 2.3 | P 2.76 | K 2.48 | S 2.81
L2: C 4.89 | S 3.11 | F 3.31 | Y 1.82 | T 2.71 | Q 2.57 | G 2.76 | I 1.78 | E 3.61 | H 3.11 | N 3.27 | V 4.05 | P 2.63 | D 3.39 | M 3.08 | W 1.86 | A 1.96
Q5: G 1.87 | I 2.13 | N 2.29 | S 2.36 | P 2.3 | L 2.4 | A 2.63 | D 2.23 | V 1.74 | M 2.21 | T 2.82 | R 2.09 | E 3.06 | H 2.74 | K 2.28 | C 1.95 | W 1.66
I7: M 2.66 | V 2.27 | E 2.64 | R 2.55 | W 2.17 | S 1.91 | C 2.48 | T 2.41 | D 3.06 | A 2.39 | Y 1.77 | L 1.94 | Q 2.31 | P 2.56 | G 2.48 | N 2.1 | F 2.79 | H 2.68 | K 2.14
G10: L 2.3 | T 3.22 | N 3.12 | P 2.15 | D 2.56 | H 2.61 | F 2.07 | K 2.24 | I 2.29 | Y 2.17 | V 2.43 | S 2.64 | Q 2.86 | M 2.23 | C 2.49 | E 3.06 | R 2.46 | W 1.69 | A 2.36
R6: T 2.85 | D 2.78 | Y 1.91 | N 2.59 | H 3.73 | M 2.08 | G 2.08 | W 2.06 | I 2.22 | S 2.51 | L 2.41 | K 2.81 | E 2.74 | Q 2.53 | V 2.78 | A 2.68 | P 2.56 | C 5 | F 1.41
T9: M 2.21 | V 2.34 | N 2.07 | P 2.45 | F 2.06 | L 3.29 | Y 2.56 | C 2.19 | Q 3.1 | G 3.33 | D 2.73 | A 1.85 | H 2.21 | R 2.14 | W 1.49 | E 2.62 | S 1.88 | K 2.41 | I 2.53
H4: G 2.99 | A 2.18 | W 1.77 | V 3.58 | I 1.96 | T 1.69 | L 2.15 | P 2.25 | K 2.2 | C 3.89 | Q 2.56 | R 3.38 | M 1.73 | D 2.58 | Y 2.12 | F 1.92 | N 2.24 | S 2.23 | E 2.81
H8: N 2.88 | F 2.04 | Y 1.59 | E 2.52 | S 2.61 | K 2.44 | G 2.39 | V 2.48 | D 2.53 | W 1.73 | A 1.86 | T 2 | R 1.37 | L 1.85 | I 1.8 | M 2.24 | C 2.03 | P 3.3 | Q 2.52
